Measurements as given in article PMC6364133, “Selectivity of Dietary Phenolics for Inhibition of Human Monoamine Oxidases A and B” (BioMed Research International, 2019).
Values joined by “and” are separate entries in the source; they are usually repeats but may differ in a detail not shown here. Equal values may be shown once.

Key:
Assay type in all cases: biochemical, human
[1] = substrate: NCCC(=O)c1ccccc1N; assay: Kynuramine oxidative deamination kinetics (saturation, optimization) with MAO-A; conditions: other: kynuramine 2-500 μM, 15 min, mean ± SEM; pH 7.4; 37.0 °C
Experimental: (§1) The optimized incubation time and human recombinant MAO concentration were selected in the linear range from the time-dependent and MAO concentration-dependent studies (Supplemental Data). Briefly, samples were prepared in potassium phosphate buffer (100 mM, pH 7.4) with a final concentration of MAO in the reaction solution of 0.01 mg/mL, incubated at 37°C for 15 min. Saturation of kynuramine metabolism with MAO-A/B was carried out at concentrations of 2, 5, 10, 25, 50, 100, 250, 500 μM. The enzymatic reactions (200μL) were stopped by 2 N NaOH (75 μL) followed with 70% perchloric acid (25 μL). The samples were vortexed and centrifuged for 5 min at 10,000×g. The supernatant was analyzed by HPLC as described above.
(§2) GraphPad Prism 5 was applied to fit a Michaelis-Menten model to the data to obtain the Km values in the saturation experiments. In the screening experiments, significant differences between control and treated group were determined by a one-way ANOVA followed by Dunnett's posttest (p < 0.05). […] The maximum single doses are from published sources. The relevant GI concentration is the lesser of either solubility or the concentration after a single dose. […]
(§3) Kynuramine (10 µM) was incubated with MAO-A (0.01 mg/mL) in 200 µL potassium phosphate buffer (100 mM, pH 7.4) for 10, 20, 30, 40, and 60 min. The formation of 4-hydroxyquinoline was analyzed after the enzymatic reaction. […]

[2] = substrate: NCCC(=O)c1ccccc1N; assay: Inhibition mechanism studies (competition, time dependence) with MAO-A; conditions: other: competition study control, kynuramine 2-450 μM
[3] = substrate: NCCC(=O)c1ccccc1N; assay: Kynuramine oxidative deamination kinetics (saturation, optimization) with MAO-B; conditions: other: kynuramine 2-500 μM, 15 min, mean ± SEM; pH 7.4; 37.0 °C
Experimental: as §1, §2, §3

[4] = substrate: NCCC(=O)c1ccccc1N; assay: Inhibition mechanism studies (competition, time dependence) with MAO-B; conditions: other: competition study control, kynuramine 2-450 μM

B1: human recombinant MAO-A (Homo sapiens) (protein)
chain: MENQEKASIAGHMFDVVVIGGGISGLSAAKLLTEYGVSVLVLEARDRVGGRTYTIRNEHVDYVDVGGAYVGPTQNRILRLSKELGIETYKVNVSERLVQYVKGKTYPFRGAFPPVWNPIAYLDYNNLWRTIDNMGKEIPTDAPWEAQHADKWDKMTMKELIDKICWTKTARRFAYLFVNINVTSEPHEVSALWFLWYVKQCGGTTRIFSVTNGGQERKFVGGSGQVSERIMDLLGDQVKLNHPVTHVDQSSDNIIIETLNHEHYECKYVINAIPPTLTAKIHFRPELPAERNQLIQRLPMGAVIKCMMYYKEAFWKKKDYCGCMIIEDEDAPISITLDDTKPDGSLPAIMGFILARKADRLAKLHKEIRKKKICELYAKVLGSQEALHPVHYEEKNWCEEQYSGGCYTAYFPPGIMTQYGRVIRQPVGRIFFAGTETATKWSGYMEGAVEAGERAAREVLNGLGKVTEKDIWVQEPESKDVPAVEITHTFWERNLPSVSGLLKIIGFSTSVTALGFVLYKYKLLPRS
notes: purchased BD Biosciences (San Jose, CA) or Corning Discovery Labware (Woburn, MA)
B1 was tested, and the Km [1] was 23.1 ± 0.8 µM and 23 µM and the Vmax [1] was 10.2 ± 0.2 nmol/min/mg.

B2: MAO-A (Homo sapiens) (protein)
chain: MENQEKASIAGHMFDVVVIGGGISGLSAAKLLTEYGVSVLVLEARDRVGGRTYTIRNEHVDYVDVGGAYVGPTQNRILRLSKELGIETYKVNVSERLVQYVKGKTYPFRGAFPPVWNPIAYLDYNNLWRTIDNMGKEIPTDAPWEAQHADKWDKMTMKELIDKICWTKTARRFAYLFVNINVTSEPHEVSALWFLWYVKQCGGTTRIFSVTNGGQERKFVGGSGQVSERIMDLLGDQVKLNHPVTHVDQSSDNIIIETLNHEHYECKYVINAIPPTLTAKIHFRPELPAERNQLIQRLPMGAVIKCMMYYKEAFWKKKDYCGCMIIEDEDAPISITLDDTKPDGSLPAIMGFILARKADRLAKLHKEIRKKKICELYAKVLGSQEALHPVHYEEKNWCEEQYSGGCYTAYFPPGIMTQYGRVIRQPVGRIFFAGTETATKWSGYMEGAVEAGERAAREVLNGLGKVTEKDIWVQEPESKDVPAVEITHTFWERNLPSVSGLLKIIGFSTSVTALGFVLYKYKLLPRS
notes: as for B1
Protein B2 has a Km [2] of 8.46 ± 1.56 µM and a Vmax [2] of 17.4 ± 0.7 nmol/min/mg protein.

B3: human recombinant MAO-B (Homo sapiens) (protein)
chain: MSNKCDVVVVGGGISGMAAAKLLHDSGLNVVVLEARDRVGGRTYTLRNQKVKYVDLGGSYVGPTQNRILRLAKELGLETYKVNEVERLIHHVKGKSYPFRGPFPPVWNPITYLDHNNFWRTMDDMGREIPSDAPWKAPLAEEWDNMTMKELLDKLCWTESAKQLATLFVNLCVTAETHEVSALWFLWYVKQCGGTTRIISTTNGGQERKFVGGSGQVSERIMDLLGDRVKLERPVIYIDQTRENVLVETLNHEMYEAKYVISAIPPTLGMKIHFNPPLPMMRNQMITRVPLGSVIKCIVYYKEPFWRKKDYCGTMIIDGEEAPVAYTLDDTKPEGNYAAIMGFILAHKARKLARLTKEERLKKLCELYAKVLGSLEALEPVHYEEKNWCEEQYSGGCYTTYFPPGILTQYGRVLRQPVDRIYFAGTETATHWSGYMEGAVEAGERAAREILHAMGKIPEDEIWQSEPESVDVPAQPITTTFLERHLPSVPGLLRLIGLTTIFSATALGFLAHKRGLLVRV
notes: as for B1
B3 was tested, and the Km [3] was 18.0 ± 2.3 µM and the Vmax [3] was 7.35 ± 0.69 nmol/min/mg.

B4: MAO-B (Homo sapiens) (protein)
chain: MSNKCDVVVVGGGISGMAAAKLLHDSGLNVVVLEARDRVGGRTYTLRNQKVKYVDLGGSYVGPTQNRILRLAKELGLETYKVNEVERLIHHVKGKSYPFRGPFPPVWNPITYLDHNNFWRTMDDMGREIPSDAPWKAPLAEEWDNMTMKELLDKLCWTESAKQLATLFVNLCVTAETHEVSALWFLWYVKQCGGTTRIISTTNGGQERKFVGGSGQVSERIMDLLGDRVKLERPVIYIDQTRENVLVETLNHEMYEAKYVISAIPPTLGMKIHFNPPLPMMRNQMITRVPLGSVIKCIVYYKEPFWRKKDYCGTMIIDGEEAPVAYTLDDTKPEGNYAAIMGFILAHKARKLARLTKEERLKKLCELYAKVLGSLEALEPVHYEEKNWCEEQYSGGCYTTYFPPGILTQYGRVLRQPVDRIYFAGTETATHWSGYMEGAVEAGERAAREILHAMGKIPEDEIWQSEPESVDVPAQPITTTFLERHLPSVPGLLRLIGLTTIFSATALGFLAHKRGLLVRV
notes: as for B1
In the case of B4, the Km [4] is reported as 14.4 ± 1.2 µM and the Vmax [4] is reported as 3.44 ± 0.07 nmol/min/mg protein.
